{"source": "patent US20230357364A1", "about": "(INTERNATIONAL AIDS VACCINE INITIATIVE, published 2023)", "binders": {"B1": {"name": "L6.dP04A03 (antibody, V domains shown)", "VH": "QVQLVQSGAEVKKPGSSVKVSCKASGGTFSSSAISWVRQAPGQGLEWMGGIIPILDITNYAQKFQGRVTITADKSTSTAFMELSSLRSEDTAVYYCALRNQWDLLVYWGQGTLVTVSS", "VL": "not shown"}, "B2": {"name": "L6.P4A3.1 (antibody, V domains shown)", "VH": "B1 VH with T28I, T58S, R99T", "VL": "EIVLTQSPGTLSLSPGERATLSCRASQRVSSSYLAWYQQKPGQAPRLLIYGAESRATGIPDRFSGSGSGTDFTLTISRLEPEDFAVYYCQHYGSSLWTFGQGTKLEIK"}, "B3": {"name": "L6.dP03H10 (antibody, V domains shown)", "VH": "QVQLVQSGAEVKKPGSSVKVSCKASGGTFSIYAITWVRQAPGQGLEWMGGIIPIIGTANYAQKFQGRVTITADKSTSTAYMELSSLRSEDTAVYYCARDFRYCSSTRCYFWFDPWGQGTLVTVSS", "VL": "DIQMTQSPSSLSASVGDRVTITCRASQNISSYLNWYQQEAGKAPKLLIYAASSLQSGVPSRFSGSGSGTDFTLTISSLQPEDFATYYCQQSYSTPRTFGQGTKVDIK"}, "B4": {"name": "L6.dP02E05 (antibody, V domains shown)", "VH": "QVQLVQSGSELKKPGASVKVSCKASGYTFATYALNWVRQAPGQGLEWMGWVNTNTGSPTYAQGFTGRFVFSFDTSVSTAYLQIRTLKAEDTAVYYCAVYYYDSGSPGWFDPWGQGTLVTVSS", "VL": "B3 VL with M4L, N28T, I29A, E39K, A40P, K45N, G68V, R96P", "notes": "human IgG1"}, "B5": {"name": "L6.dP04E05 (antibody, V domains shown)", "VH": "EVQLVESGGGLVQPGRSLRLSCAASGFTFDDYAMHWVRQAPGKGLEWVSGISWNSDNIGYADSVKGRFTVSRDNAKNSLYLQMNSLRAEDTALYYCTKDIHRKNDYYDILTGYYRVRYYYYAMDVWGQGTTVTVSS", "VL": "QSVLTQPPSASGSPGQSVTISCTGTSSDAGGYNYVSWYQQHPGKAPKLMIYEVIKRPSGVPDRFSGSKSGNTASLTVSGLQAEDEADYYCSSFAGTSVVFGGGTKLTVL", "notes": "human IgG1"}}, "key": {"SARS-CoV-2 RBD (RBD-2) [1]": {"target": "SARS-CoV-2 RBD (RBD-2) (SARS-CoV-2)", "test": "SPR"}, "SARS-CoV-1 RBD (RBD-1)": {"target": "SARS-CoV-1 RBD (RBD-1) (SARS-CoV-1)", "test": "ELISA"}, "[2]": {"target": "T1, SARS-CoV-2 spike on pseudovirus or live virus (USA-WA1/2020, WT) (SARS-CoV-2, UniProt P0DTC2 14-1273)", "test": "cell-based or functional assay"}, "[3]": {"target": "T2, SARS-CoV-1 spike on pseudovirus (SARS-CoV-1, UniProt P59594 14-1255)", "test": "cell-based or functional assay"}, "[4]": {"target": "T1, SARS-CoV-2 spike on pseudovirus or live …", "test": "cell-based or functional assay", "remark": "listed apart in the source"}, "[5]": {"target": "T1, SARS-CoV-2 spike on pseudovirus or live …", "test": "cell-based or functional assay", "remark": "listed apart in the source"}, "[6]": {"target": "T2, SARS-CoV-1 spike on pseudovirus", "test": "cell-based or functional assay", "remark": "listed apart in the source"}, "SARS-CoV-2 RBD (RBD-2) [7]": {"target": "SARS-CoV-2 RBD (RBD-2) (SARS-CoV-2)", "test": "ELISA"}, "[8]": {"target": "T1, SARS-CoV-2 spike on pseudovirus or live …", "test": "cell-based or functional assay", "remark": "listed apart in the source"}}, "note": "Positions count from the first letter of the chain named."}
{"binder": "B1", "values": [{"measurement": "Kd", "setting": "SARS-CoV-2 RBD (RBD-2) [1]", "value": 257, "unit": "nM"}, {"measurement": "EC50", "setting": "SARS-CoV-1 RBD (RBD-1)", "value": 915, "unit": "ng/mL"}, {"measurement": "Maximum Plateau of Neutralization", "setting": "[2]", "value": 100, "unit": "%"}, {"measurement": "PSV neutralization IC50", "setting": "[2]", "value": 39, "unit": "ng/mL"}, {"measurement": "PSV neutralization IC50", "setting": "[3]", "value": 162, "unit": "ng/mL"}, {"measurement": "neutralization IC50", "setting": "[4]", "value": 168, "unit": "ng/mL"}]}
{"binder": "B2", "values": [{"measurement": "PSV in HeLa-ACE2 cells IC50", "setting": "[5]", "value": 5, "unit": "ng/mL"}, {"measurement": "live virus IC50 (HeLa-ACE2)", "setting": "[5]", "value": 8, "unit": "ng/mL"}, {"measurement": "live virus IC50 (Vero)", "setting": "[5]", "value": 1, "unit": "ng/mL"}, {"measurement": "PSV in HeLa-ACE2 cells IC50", "setting": "[6]", "value": 49, "unit": "ng/mL"}]}
{"binder": "B3", "values": [{"measurement": "Kd", "setting": "SARS-CoV-2 RBD (RBD-2) [1]", "value": 5.9, "unit": "nM"}, {"measurement": "EC50", "setting": "SARS-CoV-2 RBD (RBD-2) [7]", "value": 12, "unit": "ng/mL"}, {"measurement": "EC50", "setting": "SARS-CoV-1 RBD (RBD-1)", "value": "> 50000", "unit": "ng/mL"}, {"measurement": "Maximum Plateau of Neutralization", "setting": "[2]", "value": 100, "unit": "%"}, {"measurement": "PSV neutralization IC50", "setting": "[2]", "value": 1, "unit": "ng/mL"}, {"measurement": "PSV neutralization IC50", "setting": "[3]", "value": "> 50000", "unit": "ng/mL"}, {"measurement": "neutralization IC50", "setting": "[4]", "value": 1.7, "unit": "ng/mL"}]}
{"binder": "B4", "values": [{"measurement": "EC50", "setting": "SARS-CoV-2 RBD (RBD-2) [7]", "value": 15, "unit": "ng/mL"}, {"measurement": "EC50", "setting": "SARS-CoV-1 RBD (RBD-1)", "value": "> 50000", "unit": "ng/mL"}, {"measurement": "Maximum Plateau of Neutralization", "setting": "[2]", "value": 100, "unit": "%"}, {"measurement": "PSV neutralization IC50", "setting": "[2]", "value": 2, "unit": "ng/mL"}, {"measurement": "PSV neutralization IC50", "setting": "[3]", "value": "> 50000", "unit": "ng/mL"}, {"measurement": "neutralization IC50", "setting": "[4]", "value": 7.5, "unit": "ng/mL"}]}
{"binder": "B5", "values": [{"measurement": "EC50", "setting": "SARS-CoV-2 RBD (RBD-2) [7]", "value": 18, "unit": "ng/mL"}, {"measurement": "EC50", "setting": "SARS-CoV-1 RBD (RBD-1)", "value": "> 10000", "unit": "ng/mL"}, {"measurement": "fold more potent than L12.bP11A6", "setting": "[8]", "value": "~50", "unit": "fold"}, {"measurement": "neutralization IC50", "setting": "[4]", "value": 0.36, "unit": "ng/mL"}, {"measurement": "PSV in HeLa-ACE2 cells IC50", "setting": "[5]", "value": 6, "unit": "ng/mL"}, {"measurement": "live virus IC50 (HeLa-ACE2)", "setting": "[5]", "value": 3, "unit": "ng/mL"}, {"measurement": "live virus IC50 (Vero)", "setting": "[5]", "value": 6, "unit": "ng/mL"}, {"measurement": "PSV in HeLa-ACE2 cells IC50", "setting": "[6]", "value": "> 25000", "unit": "ng/mL"}]}
